Data taken from patent US20230073692A1 (CYTOMX THERAPEUTICS, published 2023).
Positions count from the first letter of the chain named. Names may count otherwise.

Assays:
Cyno SLC34A2 [1] = biological target: T1, Cyno SLC34A2 (cynomolgus monkey, UniProt A0A2K5UHY1 1-690); test: cell binding, Rat1E cells expressing cyno SLC34A2
T1 construct: whole, on cells; Recombinant, on Rat1E cells; also called cynomolgus monkey SLC34A2; Rat1E cells expressing SLC34A2 (Cynomolgus)
T1 sequence: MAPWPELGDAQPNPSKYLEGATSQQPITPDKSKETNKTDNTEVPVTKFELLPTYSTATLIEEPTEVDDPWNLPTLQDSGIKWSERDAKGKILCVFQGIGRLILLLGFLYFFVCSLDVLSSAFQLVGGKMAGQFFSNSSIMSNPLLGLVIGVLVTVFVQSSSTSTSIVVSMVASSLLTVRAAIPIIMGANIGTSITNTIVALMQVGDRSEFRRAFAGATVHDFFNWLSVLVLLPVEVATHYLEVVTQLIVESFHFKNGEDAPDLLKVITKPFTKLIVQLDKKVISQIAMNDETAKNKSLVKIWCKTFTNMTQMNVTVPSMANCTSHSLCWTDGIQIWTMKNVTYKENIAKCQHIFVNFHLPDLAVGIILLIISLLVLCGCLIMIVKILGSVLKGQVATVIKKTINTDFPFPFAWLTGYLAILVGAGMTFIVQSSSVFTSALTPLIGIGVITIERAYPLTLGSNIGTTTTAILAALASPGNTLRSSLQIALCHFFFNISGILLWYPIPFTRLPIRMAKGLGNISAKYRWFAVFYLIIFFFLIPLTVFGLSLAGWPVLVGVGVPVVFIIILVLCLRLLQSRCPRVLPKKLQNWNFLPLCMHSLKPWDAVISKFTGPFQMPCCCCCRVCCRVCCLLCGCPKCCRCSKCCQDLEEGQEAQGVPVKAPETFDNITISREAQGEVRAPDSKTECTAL

Human SLC34A2 [2] = biological target: T2, Human SLC34A2 (human, UniProt O95436 1-690); test: cell binding, OVCAR3 cells
T2 construct: whole, on cells; also called SLC34A2 on OVCAR3 cells; Rat 1E Human SLC34A2
T2 sequence (looked up): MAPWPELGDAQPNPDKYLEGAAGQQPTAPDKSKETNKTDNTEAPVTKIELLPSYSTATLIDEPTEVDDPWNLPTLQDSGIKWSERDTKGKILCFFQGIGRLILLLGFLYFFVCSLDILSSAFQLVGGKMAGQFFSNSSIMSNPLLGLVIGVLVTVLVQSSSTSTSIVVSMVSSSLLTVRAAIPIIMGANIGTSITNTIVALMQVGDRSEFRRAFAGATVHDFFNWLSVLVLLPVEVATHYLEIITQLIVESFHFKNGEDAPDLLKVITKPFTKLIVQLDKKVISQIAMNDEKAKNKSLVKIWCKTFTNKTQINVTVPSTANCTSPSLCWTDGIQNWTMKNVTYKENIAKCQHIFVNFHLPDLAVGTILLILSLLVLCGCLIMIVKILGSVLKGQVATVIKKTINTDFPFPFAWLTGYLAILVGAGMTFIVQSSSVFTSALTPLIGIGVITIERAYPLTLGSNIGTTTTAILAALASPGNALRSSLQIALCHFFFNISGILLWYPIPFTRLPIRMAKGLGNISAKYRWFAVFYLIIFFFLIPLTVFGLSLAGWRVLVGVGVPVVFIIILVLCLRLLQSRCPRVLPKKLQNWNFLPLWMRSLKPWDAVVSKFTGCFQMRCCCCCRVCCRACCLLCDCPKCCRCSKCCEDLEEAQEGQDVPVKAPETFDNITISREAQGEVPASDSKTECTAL

Human SLC34A3 [3] = biological target: T3, Human SLC34A3 (human, UniProt Q8N130); test: flow cytometry on 293-FT cells transiently transfected with human SLC34A3, overlay with isotype control
T3 sequence (target protein, looked up): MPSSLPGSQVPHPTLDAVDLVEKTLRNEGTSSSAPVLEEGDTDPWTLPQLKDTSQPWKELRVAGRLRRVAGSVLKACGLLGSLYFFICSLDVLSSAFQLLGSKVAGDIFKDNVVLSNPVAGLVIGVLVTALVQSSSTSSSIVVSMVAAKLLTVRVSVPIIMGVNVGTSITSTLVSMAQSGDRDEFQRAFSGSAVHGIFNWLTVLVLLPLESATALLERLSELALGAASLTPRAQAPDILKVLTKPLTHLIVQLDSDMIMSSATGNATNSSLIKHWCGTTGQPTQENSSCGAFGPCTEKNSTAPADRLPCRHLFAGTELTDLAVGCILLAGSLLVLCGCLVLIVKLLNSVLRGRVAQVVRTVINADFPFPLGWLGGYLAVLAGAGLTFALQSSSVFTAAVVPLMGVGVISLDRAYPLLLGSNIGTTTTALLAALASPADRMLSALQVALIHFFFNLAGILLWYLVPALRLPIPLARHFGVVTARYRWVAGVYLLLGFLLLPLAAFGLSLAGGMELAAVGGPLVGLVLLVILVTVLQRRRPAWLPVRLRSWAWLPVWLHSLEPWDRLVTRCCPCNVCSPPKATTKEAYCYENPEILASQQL

Human SLC34A2 [4] = biological target: T2, Human SLC34A2; test: binding affinity on Rat1E cells expressing human SLC34A2
Murine SLC34A2 (murine) = Murine SLC34A2 (murine) (UniProt Q9DBP0); test: cell binding, Rat1E cells expressing murine SLC34A2
Human SLC34A1 [5] = biological target: T4, Human SLC34A1 (human, UniProt Q06495); test: flow cytometry on 293-FT cells transiently transfected with human SLC34A1, overlay with isotype control
T4 sequence (target protein, looked up): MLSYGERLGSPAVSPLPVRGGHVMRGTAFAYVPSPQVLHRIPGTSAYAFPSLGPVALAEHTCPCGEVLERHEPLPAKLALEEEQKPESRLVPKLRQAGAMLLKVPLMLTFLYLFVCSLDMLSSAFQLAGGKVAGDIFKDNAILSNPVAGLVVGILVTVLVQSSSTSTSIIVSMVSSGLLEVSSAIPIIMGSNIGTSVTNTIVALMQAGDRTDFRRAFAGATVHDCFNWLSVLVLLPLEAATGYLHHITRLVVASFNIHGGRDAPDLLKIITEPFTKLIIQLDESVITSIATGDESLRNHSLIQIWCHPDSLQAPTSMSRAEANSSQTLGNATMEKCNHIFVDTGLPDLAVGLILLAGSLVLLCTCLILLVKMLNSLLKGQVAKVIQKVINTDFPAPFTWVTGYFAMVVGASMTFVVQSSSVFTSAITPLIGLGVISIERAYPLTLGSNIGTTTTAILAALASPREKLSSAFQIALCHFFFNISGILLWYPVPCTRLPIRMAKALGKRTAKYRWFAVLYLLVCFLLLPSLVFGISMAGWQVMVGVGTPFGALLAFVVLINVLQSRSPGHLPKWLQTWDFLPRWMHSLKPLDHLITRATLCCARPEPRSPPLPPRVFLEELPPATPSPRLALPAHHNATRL

Human SLC34A2 [6] = biological target: T2, Human SLC34A2; test: cell binding, Rat1E cells expressing human SLC34A2
Rat SLC34A2 = biological target: T5, Rat SLC34A2 (rat, UniProt Q9JJ09 1-695); test: binding affinity on Rat1E cells expressing rat SLC34A2
T5 construct: whole, on cells; also called Rat1E cells expressing SLC34A2 (Rat)
T5 sequence (looked up): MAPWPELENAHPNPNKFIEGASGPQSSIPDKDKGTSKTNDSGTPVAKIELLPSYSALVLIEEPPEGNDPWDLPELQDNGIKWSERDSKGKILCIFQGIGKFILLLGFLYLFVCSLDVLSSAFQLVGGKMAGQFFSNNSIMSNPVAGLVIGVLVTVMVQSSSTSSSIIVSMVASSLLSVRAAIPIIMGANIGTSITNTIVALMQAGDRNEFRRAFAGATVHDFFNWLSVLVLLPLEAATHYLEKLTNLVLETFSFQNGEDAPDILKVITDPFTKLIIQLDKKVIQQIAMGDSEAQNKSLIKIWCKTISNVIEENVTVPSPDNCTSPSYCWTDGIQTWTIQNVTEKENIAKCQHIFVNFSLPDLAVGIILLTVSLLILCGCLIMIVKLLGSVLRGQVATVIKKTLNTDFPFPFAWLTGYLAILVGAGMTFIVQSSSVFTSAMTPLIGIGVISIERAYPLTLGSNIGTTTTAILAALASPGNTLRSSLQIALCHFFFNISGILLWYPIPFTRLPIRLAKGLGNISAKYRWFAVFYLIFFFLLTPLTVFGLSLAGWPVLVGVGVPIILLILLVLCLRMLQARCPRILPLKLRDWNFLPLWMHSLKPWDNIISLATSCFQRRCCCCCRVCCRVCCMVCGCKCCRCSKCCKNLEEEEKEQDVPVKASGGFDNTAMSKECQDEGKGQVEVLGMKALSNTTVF

Cyno SLC34A2 [7] = biological target: T1, Cyno SLC34A2; test: binding affinity on Rat1E cells expressing cynomolgus SLC34A2
Human SLC34A1 [8] = biological target: T4, Human SLC34A1; test: flow cytometry on 293-FT cells transiently transfected with human SLC34A1, overlay with isotype control ADC
Human SLC34A3 [9] = biological target: T3, Human SLC34A3; test: flow cytometry on 293-FT cells transiently transfected with human SLC34A3, overlay with isotype control ADC
Human SLC34A2 [10] = biological target: T2, Human SLC34A2; test: cell-based or functional assay

B1: cHv83-1b15.G1(L328C)k (antibody, V domains shown)
VH: EVQLVESGGGWVQPGGSLRLSCAASGFTFSSHIMYWVRQAPGKGLEYVSGISSNGLSSYYVDSVKGRFTISRDNSKNLLYVHMGSLKPEDMAMYYCARGGRDRVPAVFDYWGQGTLVTVSS
VL: DIQMTQSPSSLSASIGDRVTITCRASQSIGTFLNWYQQKPGKAPKVLIYVASSLQSGVPSRFIGSGSGTDFTLTISSLQPEDFATYYCQQSYSVPITFGQGTRLEIKR
notes: the name says L328C in the IgG1 constant region; also called [Ag]AB-3; cHv83-1b15.G1k(L328C)k
- Kd (Cyno SLC34A2 [1]): 0.967 nM
- Kd (Human SLC34A2 [2]): 3.79 nM
- binding result (Human SLC34A3 [3]): no binding
- Kd (Human SLC34A2 [4]): 0.721 nM
- Bmax (Murine SLC34A2 (murine)): 15000
- Kd (Murine SLC34A2 (murine)): 0.0631 nM
- binding result (Human SLC34A1 [5]): no binding
- Kd (Human SLC34A2 [6]): 1.03 nM
- Kd (Rat SLC34A2): 0.246 nM
- Kd (Cyno SLC34A2 [7]): 0.67 nM

B2: cHv83-3a23.G1(L328C)k-AGL-01332-93 (OT#1) (other)
VH: EVQLVESGGGLVQPGGSLRLSCAASGFTFSSYVMHWVRQAPGKGLEYVSGVSSSGDSTFYVDSVKGRFTISRDNSKNTLYLQMGSLRAEDMAVYYCARGGITGAPLVFDIWGQGTMVTVSS
VL: B1 VL with I15V, G30S, T31R, A51T, I63S, S93N, V94T
modifications: AGL-01332-93 drug-linker conjugated to the antibody; engineered Cys at 328 (L328C) lies in the IgG1 constant region, outside the VH pieces given
notes: Human IgG1 (L328C) / kappa
- Kd (Human SLC34A2 [4]): 0.411 nM
- Kd (Rat SLC34A2): 0.686 nM
- binding result (Human SLC34A1 [8]): no binding
- Kd (Cyno SLC34A2 [7]): 0.227 nM
- binding result (Human SLC34A3 [9]): no binding
- in vitro cytotoxicity in target-positive OVCAR3 cells (Human SLC34A2 [10]): > 10 fold better EC50 than the benchmark ADC

B3: cHv83-3a23.G1(L328C)k (antibody, V domains shown)
VH: B2 VH
VL: B1 VL with I15V, G30S, T31R, A51T, I63S, S93N, V94T
notes: the name says L328C in the IgG1 constant region; also called [Ag]AB-2; unconjugated antibody of OT1 / OT#1
- Kd (Cyno SLC34A2 [1]): 0.17 nM
- Kd (Human SLC34A2 [2]): 2.28 nM
- binding result (Human SLC34A3 [3]): no binding
- Kd (Human SLC34A2 [4]): 0.553 nM
- Bmax (Murine SLC34A2 (murine)): 11300
- Kd (Murine SLC34A2 (murine)): 0.0903 nM
- binding result (Human SLC34A1 [5]): no binding
- Kd (Human SLC34A2 [6]): 0.254 nM
- Kd (Rat SLC34A2): 0.689 nM
- Kd (Cyno SLC34A2 [7]): 0.17 nM

B4: cHv83-1b15.G1(L328C)k-AGL-01332-93 (OT#2) (other)
VH: B1 VH
VL: B1 VL
modifications: AGL-01332-93 drug-linker conjugated to the antibody; engineered Cys at 328 (L328C) lies in the IgG1 constant region, outside the VH pieces given
notes: Human IgG1 (L328C) / kappa
- Kd (Human SLC34A2 [4]): 1.76 nM
- Kd (Rat SLC34A2): 0.913 nM
- binding result (Human SLC34A1 [8]): no binding
- Kd (Cyno SLC34A2 [7]): 1.2 nM
- binding result (Human SLC34A3 [9]): no binding
- in vitro cytotoxicity in target-positive OVCAR3 cells (Human SLC34A2 [10]): > 10 fold better EC50 than the benchmark ADC
